# Measured values taken from US20260167737A1 (BIGHAT BIOSCIENCES, published 2026).
# T1: CDH17 (UniProt Q12864 23-787, limits assumed)
# T1 construct: also called cadherin 17
# T1 sequence (looked up): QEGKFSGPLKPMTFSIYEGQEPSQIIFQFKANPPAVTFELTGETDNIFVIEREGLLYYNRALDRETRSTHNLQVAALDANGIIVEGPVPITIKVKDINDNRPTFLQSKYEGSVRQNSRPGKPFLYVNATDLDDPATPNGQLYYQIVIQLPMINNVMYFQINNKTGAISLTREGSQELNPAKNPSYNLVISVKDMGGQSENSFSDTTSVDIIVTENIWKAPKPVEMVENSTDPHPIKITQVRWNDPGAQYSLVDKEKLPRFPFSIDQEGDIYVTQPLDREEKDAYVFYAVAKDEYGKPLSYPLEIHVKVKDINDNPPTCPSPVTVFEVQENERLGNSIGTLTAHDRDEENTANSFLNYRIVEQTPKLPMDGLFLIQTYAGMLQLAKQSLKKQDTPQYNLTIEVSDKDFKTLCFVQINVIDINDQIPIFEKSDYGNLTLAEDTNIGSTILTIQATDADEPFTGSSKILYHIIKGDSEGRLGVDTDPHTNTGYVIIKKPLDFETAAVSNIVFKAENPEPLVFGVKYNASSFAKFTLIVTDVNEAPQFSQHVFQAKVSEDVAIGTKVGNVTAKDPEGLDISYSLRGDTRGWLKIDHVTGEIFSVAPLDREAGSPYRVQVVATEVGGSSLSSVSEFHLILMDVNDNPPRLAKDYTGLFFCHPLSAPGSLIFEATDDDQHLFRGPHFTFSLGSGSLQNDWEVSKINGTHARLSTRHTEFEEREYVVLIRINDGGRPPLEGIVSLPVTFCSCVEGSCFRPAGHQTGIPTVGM
# How the values were obtained:
# CDH17 on SNU16 cells = CDH17 on SNU16 cells (UniProt Q12864)
# CDH17 [1] = target: T1, CDH17
# CDH17 [2] = target: T1, CDH17; assay: method not stated; KD at pH 7.4
Molecule,Kd (CDH17 [2]) [nM],further results
isotype vedotin (Fc fusion),–,"cytotoxicity IC50 of the negative control (no asterisk: isotype control vedotin ADC), SNU16 (gastric) cells (CDH17 on SNU16 cells): > 100 nM; cytotoxicity IC50 of the negative control (no asterisk: isotype control vedotin ADC), AsPC1 (PDAC) cells (CDH17 [1]): > 100 nM; cytotoxicity IC50 of the negative control (no asterisk: isotype control vedotin ADC), CAPAN2 (PDAC) cells (ABC <LLOD) (CDH17 [1]): > 100 nM; cytotoxicity IC50 of the negative control (no asterisk: isotype control vedotin ADC), LoVo (CRC) cells (ABC <LLOD) (CDH17 [1]): > 100 nM; cytotoxicity IC50 of the negative control (no asterisk: isotype control vedotin ADC), NCI-H508 (CRC) cells (CDH17 [1]): 0.301 nM; cytotoxicity IC50 of the negative control (no asterisk: isotype control vedotin ADC), SW403 (CRC) cells (CDH17 [1]): > 100 nM; cytotoxicity IC50 of the negative control (no asterisk: isotype control vedotin ADC), SW837 (CRC) cells (ABC <LLOD) (CDH17 [1]): > 100 nM"
CDH17_vhh_0688 (VHH) VHH: QVQLQESGGGLVQPGGSTRLSCVSSRTFSYYDMGWFRQAPGKEREFVALLSWRGNNAEYSDDVMGRFTVSRGNTQNSVNLQMNNLKPEDTGIYYCAVTYGNARSVRSWGQGTQVTVSS,5.43,–
CDH17_vhh_0950 (VHH) VHH: QVQLQESGGGLVQPGGSTRLSCVSSRTFSYYDMGWFRQAPGKEREFVALLSWRGNNSEYSDSVHGRFTVSRGNTQNSVNLQMNNLKPEDTGIYYCAVTYGGARSVRLWGQGTQVTVSS,3.81,–
CDH17_vhh_0946 (VHH) VHH: QVQLQESGGGLVQPGGSTRLSCVSSRTFSYYDMGWFRQAPGKEREFVALLSWRGNNAEYSDFVMGRFTVSRGNTQNSVNLQMNNLKPEDTGIYYCAVTYGVARSVRLWGQGTQVTVSS,2.04,–
CDH17_vhh_0951 (VHH) VHH: QVQLQESGGGLVQPGGSTRLSCVSSRTFSYYDMGWFRQAPGKEREFVALLSWRGNNAEYSDDVMGRFTVSRGNTQNSVNLQMNNLKPEDTGIYYCAVTYGTARSVRLWGQGTQVTVSS,1.81,–
CDH17_vhh_0949 (VHH) VHH: QVQLQESGGGLVQPGGSTRLSCVSSRTFSYYDMGWFRQAPGKEREFVALLSWRGNNAEYSDDVMGRFTVSRGNTQNSVNLQMNNLKPEDTGIYYCAVTYGKARSVRLWGQGTQVTVSS,2.01,–
CDH17_vhh_0948 (VHH) VHH: QVQLQESGGGLVQPGGSTRLSCVSSRTFSYYDMGWFRQAPGKEREFVALLSWRGNNAEYSDDVHGRFTVSRGNTQNSVNLQMNNLKPEDTGIYYCAVTYGGARSVRLWGQGTQVTVSS,3.94,–
CDH17_vhh_0945 (VHH) VHH: QVQLQESGGGLVQPGGSTRLSCVSSRTFSYYDMGWFRQAPGKEREFVALLSWRGNNAEYSDSVHGRFTVSRGNTQNSVNLQMNNLKPEDTGIYYCAVTYGVARSVRLWGQGTQVTVSS,2.15,–
CDH17_vhh_0952 (VHH) VHH: QVQLQESGGGLVQPGGSTRLSCVSSRTFSYYDMGWFRQAPGKEREFVALLSWRGNNAEYSDDVMGRFTVSRGNTQNSVNLQMNNLKPEDTGIYYCAVTYGNARSVRLWGQGTQVTVSS,2.61,–
CDH17_vhh_0689 (VHH) VHH: QVQLQESGGGLVQPGGSTRLSCVSSRTFSYYDMGWFRQAPGKEREFVALLSWRGNNAEYSDFVMGRFTVSRGNTQNSVNLQMNNLKPEDTGIYYCAVTYGGARSVRLWGQGTQVTVSS,4.83,–
